Test system: Escherichia coli TOP10
Assay: shrunken log2 fold change of peptide-encoding DNA abundance (4.5 h post-induction vs induction); higher = less antimicrobial activity (less host growth inhibition)
Settings: time post-induction: 4.5 h; library: site-saturation at positions 5, 18, 19, 20
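Note: peptides expressed intracellularly from a pBAD plasmid library in pooled LB shake-flask culture, induced with 0.3% L-arabinose, DNA abundance read by NGS, three biological replicates, DESeq2 with apeglm shrinkage.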

RRIRIRPPRLPRPRPRPCDKPRP
shrunken log2 fold change: -0.0161

RRIRIRPPRLPRPRPRPCDMPRP
shrunken log2 fold change: -0.511

RRIRIRPPRLPRPRPRPCENPRP
shrunken log2 fold change: -0.00127

RRIRIRPPRLPRPRPRPCFDPRP
shrunken log2 fold change: -0.493

RRIRIRPPRLPRPRPRPCFKPRP
shrunken log2 fold change: -1.04

RRIRIRPPRLPRPRPRPCGHPRP
shrunken log2 fold change: 0.00489

RRIRIRPPRLPRPRPRPCHFPRP
shrunken log2 fold change: -0.131

RRIRIRPPRLPRPRPRPCHSPRP
shrunken log2 fold change: 0.00888

RRIRIRPPRLPRPRPRPCIFPRP
shrunken log2 fold change: -0.402

RRIRIRPPRLPRPRPRPCIRPRP
shrunken log2 fold change: -0.0379

RRIRIRPPRLPRPRPRPCMTPRP
shrunken log2 fold change: -0.337

RRIRIRPPRLPRPRPRPCNAPRP
shrunken log2 fold change: -0.0751

RRIRIRPPRLPRPRPRPCNIPRP
shrunken log2 fold change: -0.106

RRIRIRPPRLPRPRPRPCNLPRP
shrunken log2 fold change: -0.877

RRIRIRPPRLPRPRPRPCPFPRP
shrunken log2 fold change: -1.38

RRIRIRPPRLPRPRPRPCSAPRP
shrunken log2 fold change: -0.392

RRIRIRPPRLPRPRPRPCSHPRP
shrunken log2 fold change: 0.0454

RRIRIRPPRLPRPRPRPCSRPRP
shrunken log2 fold change: -0.139

RRIRIRPPRLPRPRPRPCTEPRP
shrunken log2 fold change: -0.0706

RRIRIRPPRLPRPRPRPCTFPRP
shrunken log2 fold change: -0.212

RRIRIRPPRLPRPRPRPCTNPRP
shrunken log2 fold change: -0.0668

RRIRIRPPRLPRPRPRPCWCPRP
shrunken log2 fold change: -0.063

RRIRIRPPRLPRPRPRPCWTPRP
shrunken log2 fold change: -0.281

RRIRIRPPRLPRPRPRPDANPRP
shrunken log2 fold change: 0.219

RRIRIRPPRLPRPRPRPDCTPRP
shrunken log2 fold change: 0.0385

RRIRIRPPRLPRPRPRPDCWPRP
shrunken log2 fold change: 0.103

RRIRIRPPRLPRPRPRPDDSPRP
shrunken log2 fold change: -0.267

RRIRIRPPRLPRPRPRPDECPRP
shrunken log2 fold change: 0.0238

RRIRIRPPRLPRPRPRPDEWPRP
shrunken log2 fold change: -0.0975

RRIRIRPPRLPRPRPRPDFAPRP
shrunken log2 fold change: 0.222

RRIRIRPPRLPRPRPRPDFNPRP
shrunken log2 fold change: -0.701

RRIRIRPPRLPRPRPRPDFSPRP
shrunken log2 fold change: -0.175

RRIRIRPPRLPRPRPRPDFWPRP
shrunken log2 fold change: 0.0448

RRIRIRPPRLPRPRPRPDLNPRP
shrunken log2 fold change: -0.211

RRIRIRPPRLPRPRPRPDLSPRP
shrunken log2 fold change: -0.000521

RRIRIRPPRLPRPRPRPDMLPRP
shrunken log2 fold change: -0.618

RRIRIRPPRLPRPRPRPDPAPRP
shrunken log2 fold change: 0.0747

RRIRIRPPRLPRPRPRPDPGPRP
shrunken log2 fold change: -0.0404

RRIRIRPPRLPRPRPRPDQGPRP
shrunken log2 fold change: 0.0651

RRIRIRPPRLPRPRPRPDSSPRP
shrunken log2 fold change: -0.318

RRIRIRPPRLPRPRPRPDTQPRP
shrunken log2 fold change: -0.167

RRIRIRPPRLPRPRPRPDVFPRP
shrunken log2 fold change: -0.115

RRIRIRPPRLPRPRPRPDVKPRP
shrunken log2 fold change: -0.147

RRIRIRPPRLPRPRPRPDVSPRP
shrunken log2 fold change: -0.121

RRIRIRPPRLPRPRPRPDVWPRP
shrunken log2 fold change: -0.109

RRIRIRPPRLPRPRPRPDWPPRP
shrunken log2 fold change: 0.0262

RRIRIRPPRLPRPRPRPDWVPRP
shrunken log2 fold change: 0.135

RRIRIRPPRLPRPRPRPDYRPRP
shrunken log2 fold change: 0.0581

RRIRIRPPRLPRPRPRPDYYPRP
shrunken log2 fold change: -0.155

RRIRIRPPRLPRPRPRPECDPRP
shrunken log2 fold change: 0.0126

RRIRIRPPRLPRPRPRPECLPRP
shrunken log2 fold change: 0.0969

RRIRIRPPRLPRPRPRPEEIPRP
shrunken log2 fold change: -0.0261

RRIRIRPPRLPRPRPRPEENPRP
shrunken log2 fold change: -0.306

RRIRIRPPRLPRPRPRPEFCPRP
shrunken log2 fold change: -0.0252

RRIRIRPPRLPRPRPRPEFHPRP
shrunken log2 fold change: 0.0992

RRIRIRPPRLPRPRPRPEHLPRP
shrunken log2 fold change: -0.105

RRIRIRPPRLPRPRPRPEHRPRP
shrunken log2 fold change: -0.051

RRIRIRPPRLPRPRPRPEIEPRP
shrunken log2 fold change: -0.0562

RRIRIRPPRLPRPRPRPELMPRP
shrunken log2 fold change: -0.00872

RRIRIRPPRLPRPRPRPEMEPRP
shrunken log2 fold change: -0.0895

— the supplement of paper PMC9112550, “Optimization of the antimicrobial peptide Bac7 by deep mutational scanning” (BMC Biology, 2022)
